Experimental data as given in the DeepSol protein solubility set.

Assay: soluble on expression in E. coli; label from the status in PepcDB or PDB records
With “VQAANLMDRIKANPVSEKNIDEKFIYNTADFSIELFKNSIDDKENSLISPLSAMLALAMTANGADNETLAQMEKALGKDISIEDLNKYLYTYMKKLPNEEKSKLTIANSIWFKENDFMPSKDFLQIIADYYKADIFKAAFDSSTVSDINNWVKSKTNGMIDKILNKIDPEDVMYLINAVAFDAEWETVYEKASVHEDIFTDVYGNRQKVEFMNSEENLYIEEENAIGFVKPYAKNHYSFVAILPDENISVNEYIKTLTGQKFIDLIKNAKITLVRASLPKFKYEYTIKMNETLESLGMTDAFLPDKADFSKLGKSDIGNLYISEVLHKTFISVDELGTKAGAVTSVDITAAGIPVNFKTVKLNRPFIFAIIDNSTNLPIFIGTVLSL” the “soluble on expression in E. coli” value was “soluble”. With “MGSDKIHHHHHHMKTSQLIRKIQEKIDEAMSRLNDLESMEIKTEEYLDTFLALVNNTYKKAEIYNTLVDQWNLLMKQGDEIKRSIEEFKPEYVHHLTEMMKYDGINLLYLRENEHLRAIGIDEIAARTFQEFLKEEELAERSEAFNQAVRKTREQIQQYHMFHYYVSLTDNELKVDENYRLAGNYYRYSIDFFDKNFPYKSIGISRKLENVPELLEKFFRLREKLEGEDPEGDRVRKTLERLYSLSSFDTVEEFNAIIDEWTDLYEAYKQEDPFKTNVLSYSYINKDGRTVQKTYPTYDFLRWLSQRNRKNQEYILNNYLRRITDDPTREGYEIRDPSVVLENRLVEATIKALPNYKSGIMSEIDSLKKMSRMKRKRKEEEIQKKIMTDPFAAVGAKVPEEIKYWLLRRLDVTHPDLYEEWNRITSELQAYLEEVVKQ” the “soluble on expression in E. coli” value was “not soluble”. In the case of “MERVLITGGAGFIGSHLVDDLQQDYDVYVLDNYRTGKRENIKSLADDHVFELDIREYDAVEQIMKTYQFDYVIHLAALVSVAESVEKPILSQEINVVATLRLLEIIKKYNNHIKRFIFASSAAVYGDLPDLPKSDQSLILPLSPYAIDKYYGERTTLNYCSLYNIPTAVVKFFNVFGPRQDPKSQYSGVISKMFDSFEHNKPFTFFGDGLQTRDFVYVYDVVQSVRLIMEHKDAIGHGYNIGTGTFTNLLEVYRIIGELYGKSVEHEFKEARKGDIKHSYADISNLKALGFVPKYTVETGLKDYFNFEVDNIEEVTAKEVEMS”, the “soluble on expression in E. coli” value is reported as “not soluble”. In the case of “MGSDKIHHHHHHMEQYKEVHINSLNKEELEKLAKMGQLIDVRTKEEYELGHINGSTLHPVEEIKSFNKNSNKTYYIHCKSGNRSTKACDYLAKQGYDVVNLKGGYKDYEAKNFNSAPLIEKDIEIKENRKQFDFRGLQCPGPIVNISKEINNISTGEQIEVTVTDPGFNSDIKSWAKQTGNTLVNLTEEANVINAIIQKEKPKEFEINDTATGTTIVLFSGELDKAVAAMIIANGAKAAGKDVTIFFTFWGLNALKKAQSTRVKKKGISKMFDLMLPKDPIHMPLSKMNMFGLGNIMMRYVMNKKNVDSLYSLIDQAIDQDIKLIACTMSMDVMGISKEELRDEVDYGGVGTYIGHTEQANHNLFI”, the “soluble on expression in E. coli” value is reported as “not soluble”. With “MDTLKRGKYAKFLHNYLVDNSSQRGYVLNLNAQWGAGKTYFINRWIDSIKDAHPVVYIDAWKQDYSDDPMLTVVSSIIDALEEHLPAGNKKAIALKNKATRFFKAAAPLLMKGLIKKATGMNIDDVEPETEKKEGSDLYNLTGEASAALAKCLIDDHNEKLKTVEHLRSDIKSLIEALDPKKKLKLPAFIFIDELDRCRPSYAVEMLEVIKHFFELENIVFVVATDTEQLQHAVKAVYGEGFDAQTYLGRFFRRRYSLSESSRFEFVKQMVGESYEIKSLEHHHHHH” the “soluble on expression in E. coli” value was “not soluble”. In the case of “ELQAIHEKVKTEHAALSTEVVHLRQRTEELLRCNEQQAAELETCKEQLFQSNMERKELHNTVMDLRGNIRVFCRIRPPLESEENRMCCTWTYHDESTVELQSIDAQAKSKMGQQIFSFDQVFHPLSSQSDIFEMVSPLIQSALDGYNICIFAYGQTGSGKTYTMDGVPESVGVIPRTVDLLFDSIRGYRNLGWEYEIKATFLEIYNEVLYDLLSNEQKDMEIRMAKNNKNDIYVSNITEETVLDPNHLRHLMHTAKMNRATASTAGNERSSRSHAVTKLELIGRHAEKQEISVGSINLVDLAGSESPKTSTRMTETKNINRSLSELTNVILALLQKQDHIPYRNSKLTHLLMPSLGGNSKTLMFINVSPFQDCFQESVKSLRFAASVNSCKMTKAKRNRYLNNSVANSSTQSNNSGSFDK”, the “soluble on expression in E. coli” value is reported as “soluble”. With “MMSAPKITFIGAGSTIFVKNILGDVFHREALKTAHIALMDIDPTRLEESHIVVRKLMDSAGASGKITCHTQQKEALEDADFVVVAFQIGGYEPCTVTDFEVCKRHGLEQTIADTLGPGGIMRALRTIPHLWQICENMTEVCPDATMLNYVNPMAMNTWAMYARYPYIKQVGLCHSVQGTAEELARDLNIDPATLRYRCAGINHMAFYLELERKTADGSYVNLYPELLAAYEAGQAPKPNIHGNTRCQNIVRYEMFKKLGYFVTESSEHFAEYTPWFIKLGREDLIERYKVPLDEYPKRCVEQLANWHKELEEYKNASRIDIKPSREYASTIMNAIWTGEPSVIYGNVRNDGLIDNLPQGCCVEVACLVDANGIQPTKVGTLPSHLAALMQTNINVQTLLTEAILTENRDRVYHAAMMDPHTAAVLGIDEIYALVDDLIAAHGDWLPSWLHR” the “soluble on expression in E. coli” value was “not soluble”. For “MNLGDLTNFVEKPLAAVSNIVNTPNSAGRYRPFYLRNLLDAVQGRNLNDAVKGKVVLITGGSSGIGAAAAKKIAEAGGTVVLVARTLENLENVANDIRAIRGNGGTAHVYPCDLSDMDAIAVMADQVLGDLGGVDILINNAGRSIRRSLELSYDRIHDYQRTMQLNYLGAVQLILKFIPGMRERHFGHIVNVSSVGVQTRAPRFGAYIASKAALDSLCDALQAETVHDNVRFTTVHMALVRTPMISPTTIYDKFPTLTPDQAAGVITDAIVHRPRRASSPFGQFAAVADAVNPAVMDRVRNRAFNMFGDSSAAKGSESQTDTSELDKRSETFVRATRGIHW”, the “soluble on expression in E. coli” value was “soluble”. For “MGSDKIHHHHHHMKEILKQQYAIIDIGSNTMRLVIYEKQNGGFYKEIENTKVVARLRNYLVDGVLIEEGIEVLLQTLFQFQESTRFHQLRHVLCVATATIRQAENQEEIKKLVEGQTDFTLRVLSEYEEARYGYLAVMNSTSFSEGITVDIGGGSTEVTYFRNREILEYHSFPFGALSLKQQFIKEDIPTEEELDKLQTYLEYQFRTLPWLIDKKLPLIAIGGSARNLVKIHQNLICYPIAGVHLYKMKEEDIKNVKEELEGLSFIELQKLEGLAKDRADTIVPAVEVFHTLVNVIEAPAFVLSRKGLREGVFYEELTKDLGISYYPNVVEESLYLLSHEYEMDMEFVMQLIKHGRLICQQLEETGLISMSVKDWEVFHQAAKVFNIGKYIDEEASRLHTFYLLANKTIDGMMHKERVRLALIASYKSKMLFKQHLSPFEGWFDKNEQKKIRLLGAVLQFSAALNIRQRSLVESISITESKEGLTFKIVCEQSALAEKVQAEKQKKQLERVLKTNINLFFESKH”, the “soluble on expression in E. coli” value was “not soluble”. For “MKIKSNLKLRRIGNRHMIVEVSDSCVNLTNVYSLNGTAARLWEMVCNGEGRTAGELAEGLCKTYDVEYGRALRDVERQIEEWEKMGLLSRRGTGD”, the “soluble on expression in E. coli” value was “not soluble”. With “MKIKQALFTAGYSSFYFDDQQAIKNGAGHDGFIYTGDPVTPGFTSVRQAGECVSVQLILENGAVAVGDCAAVQYSGAGGRDPLFLAEHFIPFLNDHIKPLLEGRDVDAFLPNARFFDKLRIDGNLLHTAVRYGLSQALLDATALASGRLKTEVVCDEWQLPCVPEAIPLFGQSGDDRYIAVDKMILKGVDVLPHALINNVEEKLGFKGEKLREYVRWLSDRILSLRSSPRYHPTLHIDVYGTIGLIFDMDPVRCAEYIASLEKEAQGLPLYIEGPVDAGNKPDQIRMLTAITKELTRLGSGVKIVADEWCNTYQDIVDFTDAGSCHMVQIKTPDLGGIHNIVDAVLYCNKHGMEAYQGGTCNETEISARTCVHVALAARPMRMLIKPGMGFDEGLNIVFNEMNRTIALLQTKD” the “soluble on expression in E. coli” value was “soluble”. With “MAHHHHHHMANDDPKEPQPAVLNPEVDQQDTSVNGDDGDAERDGGKDVPVFTPAGARVEVHPLVLLSLVDHYARVNAKVSQKRRVAGLLLGRHLSHPGGIQVLDINNSFAVPFDEDPQNPDVWFLDTNYAEEMFLMFRRVHPKVRIVGWYSAGPSCAVQPNDMLLHLLIADRFSLNPVYCIVNTDPNNKGVPVLAYTTVHGRDGARSLEFRNIPTHLGAEEAEEIGIEHLLRDLTDSTITTLSAQVQERELSLDHLGRVLQSIEEYLNDVAEGTMPISEDVLSVLQEVISLQPHIYHLKTSTDMVRHANDQAIAMFIAAIGRCVCTLYDVIANRRRIAREIQEVRARRERSLKEKLGNEQHKAKEAATEESRKEGAAKN” the “soluble on expression in E. coli” value was “not soluble”. In the case of “MSRVKLGHHYYYIVTPQDLRDGKYKGKNIVIEGEIKDKPIIEFLPMELPSYRTIFRVSGFKVEFSGTPNVRMGEKVKVYGVFVGDGIIARAIETEGAIYITEE”, the “soluble on expression in E. coli” value is reported as “soluble”.
